Results on two molecules are retold here after US20240218065A1 (SHENGHE CHINA BIOPHARMACEUTICAL, published 2024).

For assay [1], the target named is T1, Human-NKP30-His (Kactus, cat: NKP-HM430) (human, UniProt O14931 19-138, limits assumed).
T1 construct: also called NKP30 protein; NKP30-his protein; not shown: His tag
T1 sequence (looked up): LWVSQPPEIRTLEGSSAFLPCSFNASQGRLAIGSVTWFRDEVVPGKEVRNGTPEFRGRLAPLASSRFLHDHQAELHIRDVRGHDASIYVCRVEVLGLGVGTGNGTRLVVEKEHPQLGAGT
Put plainly: ELISA: Human-NKP30-His coated at 0.2 µg/mL, antibody titrated 3-fold from 10 µg/mL (7 points), HRP goat anti-human IgG-Fc, OD450-OD570. The protocol:
Human-NKP30-His (Kactus, cat: NKP-HM430) was diluted to 0.2 μg/mL with PBS buffer at pH 7.4, added into the 96-well ELISA plate at 100 μL per well, coated overnight at 4° C., and blocked with 1% BSA blocking solution for 1 hour. The plate was washed 3 times with PBST, and the constructed expressing antibody was diluted to 10 μg/mL with 0.5% BSA sample diluent as the starting concentration, and then diluted by 3-fold gradient (7 gradients in total). A negative control (blank well and IgG1 isotype control) and a positive control were set, and the positive control was the NKP30 humanized antibody (sequence shown in SEQ ID No. 28), and incubated at 37° C. for 1 h at 100 μL per well. The plate was washed 3 times with PBST, and then HRP-labelled goat anti-human IgG-Fc was diluted with the sample diluent at 1:20000. 100 μL was added into each well, and incubated at room temperature for 1 hour. The plate was washed 4 times with PBST, and 100 μL of TMB substrate was added into each well, and incubated at room temperature without light for 10 minutes. 100 μL of 1 M HCl solution was added into each well to terminate the color development reaction. The absorbance value of each well in the 96-well plate was determined by selecting the wavelength of 450 nm and the reference wavelength of 570 nm on a multifunctional enzyme marker, and the absorbance value (OD)=OD₄₅₀ₙₘ−OD₅₇₀ₙₘ. The logarithm of the concentration of the constructed antibody was taken as the abscissa, and the measured absorbance value of each well was taken as the ordinate, and the Sigmoidaldose-response (Variable Slope) method (GraphPad Prism software, GraphPad Software, San Diego, California) was selected for nonlinear regression to obtain the binding curve of the target antibody to NKP30.
A general note: ELISA stands for enzyme-linked immunosorbent assay.

The target of assay [2] is T2, huCD24-humanFC (Acro, cat: CD4-H5254) (human, UniProt P25063 27-59).
T2 construct: also called CD24 protein; not shown: human Fc
T2 chain (looked up): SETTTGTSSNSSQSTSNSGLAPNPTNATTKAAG
Put plainly: Bridging ELISA: huCD24-humanFC coated at 0.3 µg/mL, antibody titrated 3-fold from 20 µg/mL, then NKP30-his at 0.3 µg/mL, HRP anti-His antibody, OD450-OD570. The protocol: The huCD24-humanFC (Acro, cat: CD4-H5254) was diluted to 0.3 μg/mL with PBS buffer at pH 7.4, added into the 96-well ELISA plate at 100 μL per well, coated overnight at 4° C., and blocked with 1% BSA blocking solution for 1 hour. The plate was washed 3 times with PBST, and the purified antibody was diluted to 20 μg/mL with 0.5% BSA sample diluent as the starting concentration, and then diluted by 3-fold gradient (11 gradients in total). An irrelevant antibody was set as the negative control and incubated at 37° C. for 1 h at 50 μL per well. The plate was washed 3 times with PBST, and the NKP30-his protein was diluted to 0.3 μg/mL. 100 μL was added into each well, and incubated at room temperature for 1 h. The plate was washed 3 times with PBST, and then HRP-labelled his antibody was diluted with the sample diluent at 1:5000. 100 μL was added into each well, and incubated at room temperature for 1 h. The plate was washed 4 times with PBST, 100 μL of TMB substrate was added into each well, and incubated at room temperature without light for 10 min. 100 μL of 1 M HCl solution was added into each well to terminate the color development reaction. The absorbance value of each well in the 96-well plate was determined by selecting the wavelength of 450 nm and the reference wavelength of 570 nm on a multifunctional enzyme marker, and the absorbance value (OD)=OD₄₅₀ₙₘ−OD₅₇₀ₙₘ. The logarithm of antibody concentration was taken as the abscissa, and the measured absorbance value of each well was taken as the ordinate, and the Sigmoidaldose-response (Variable Slope) method (GraphPad Prism software, GraphPad Software, San Diego, California) was selected for nonlinear regression to obtain the binding curve of the target antibody to CD24 and NKP30 proteins at both ends.

B1: DN15-B (bispecific antibody, human IgG1, kappa)
light: DIQMTQSPSTLSASVGDRVTITCSASSSVSSMHWYQQKPGKAPKLLIYSTSNLASGVPSRFSGSGSGTEYTLTISSLQPDDFATYYCHHWTSYMYTFGGGTKVEIKRTVAAPSVFIFPPSDEQLKSGTASVVCLLNNFYPREAKVQWKVDNALQSGNSQESVTEQDSKDSTYSLSSTLTLSKADYEKHKVYACEVTHQGLSSPVTKSFNRGEC
heavy 1: not shown
heavy 2: EVQLVESGGGLVQPGGSLRLSCAASGITFSRSVMGWFRQAPGKLRELVAGITSDDNTDYADSVKGRFTISRDNSKNTLYLQMNSLRAEDTAVYYCNILPDSRLGWGQGTLVTVSSGGGGSGGGGSGGGGSQVQLVQSGSELKKPGASVKVSCKASGYIFTDYAIHWVRQAPGQGLEWMGFINTATGEPTYADDFKGRFVFSLDTSVSTAYLQISSLKAEDTAVYFCTSGVHWGQGTLVTVSSASTKGPSVFPLAPSSKSTSGGTAALGCLVKDYFPEPVTVSWNSGALTSGVHTFPAVLQSSGLYSLSSVVTVPSSSLGTQTYICNVNHKPSNTKVDKKVEPKSCDKTHTCPPCPGGGGSGGGGSPALLLLLLLRPPATRGITCPPPMSVEHADIWVKSYSLYSRERYICNSGFKRKAGTSSLTECVLNKATNVAHWTTPSLKCIRDPALVHQRPAPPSTVTTAGVTPQPESLSPSGKEGGGGSGGGGSAPELLGGPSVFLFPPKPKDTLMISRTPEVTCVVVDVSHEDPEVKFNWYVDGVEVHNAKTKPREEQYNSTYRVVSVLTVLHQDWLNGKEYKCKVSNKALPAPIEKTISKAKGQPREPQVYTLPPSRDELTKNQVSLTCLVKGFYPSDIAVEWESNGQPENNYKTTPPVLDSDGSFFLASKLTVDKSRWQQGNVFSCSVMHEALHNHYTQKSLSLSPGK
notes: Trifunctional antibody against CD24 and NKP30 with IL-15 and IL-15Rα sushi between CH1 and CH2; also called constructed antibody DN15-B; multifunctional antibody
B1: in assay [1], the binding result is on record as “binds”. Also, the EC50 (read off the curve) (in general, the concentration that produces a half-maximal response) in assay [2] is about 0.1 µg/mL.

B2: DN15-D (bispecific antibody, human IgG1, kappa)
light: B1 light
heavy 1: not shown
heavy 2: QVQLVQSGSELKKPGASVKVSCKASGYIFTDYAIHWVRQAPGQGLEWMGFINTATGEPTYADDFKGRFVFSLDTSVSTAYLQISSLKAEDTAVYFCTSGVHWGQGTLVTVSSASTKGPSVFPLAPSSKSTSGGTAALGCLVKDYFPEPVTVSWNSGALTSGVHTFPAVLQSSGLYSLSSVVTVPSSSLGTQTYICNVNHKPSNTKVDKKVEPKSCDKTHTCPPCPGGGGSGGGGSPALLLLLLLRPPATRGITCPPPMSVEHADIWVKSYSLYSRERYICNSGFKRKAGTSSLTECVLNKATNVAHWTTPSLKCIRDPALVHQRPAPPSTVTTAGVTPQPESLSPSGKEGGGGSGGGGSAPELLGGPSVFLFPPKPKDTLMISRTPEVTCVVVDVSHEDPEVKFNWYVDGVEVHNAKTKPREEQYNSTYRVVSVLTVLHQDWLNGKEYKCKVSNKALPAPIEKTISKAKGQPREPQVYTLPPSRDELTKNQVSLTCLVKGFYPSDIAVEWESNGQPENNYKTTPPVLDSDGSFFLASKLTVDKSRWQQGNVFSCSVMHEALHNHYTQKSLSLSPGKGGGGSGGGGSGGGGSGGGGSEVQLVESGGGLVQPGGSLRLSCAASGITFSRSVMGWFRQAPGKLRELVAGITSDDNTDYADSVKGRFTISRDNSKNTLYLQMNSLRAEDTAVYYCNILPDSRLGWGQGTLVTVSS
notes: Trifunctional antibody against CD24 and NKP30 with IL-15 and IL-15Rα sushi between CH1 and CH2; also called constructed antibody DN15-D; multifunctional antibody
B2: in assay [1], the binding result is recorded as “binds”. The concentration giving a half-maximal response (EC50 (read off the curve)) in assay [2] was about 0.2 µg/mL.
